The text below walks through data of patent US20120264921A1.

In this test the target is hepatitis B virus surface antigen (HBsAg) (Hepatitis B virus). The test can be described thus: competitive ELISA: plate-coated HBsAg, soluble HBsAg as competitor, purified IgG.

B1: human antibody HB48-59 (antibody, V domains shown)
VH: QVQLVQSGGEVKKPGALMKVSCKASGYIFTSYGISWVRQAPGQGLEWIGWINTYSGHTNYARKFRGRVTMTWDTSTSTAYMELSSLRSDDTAVYYCARVPTWGIDYWGQGTLVTVSS
VL: DIVMTQTPLSLPVTPGEPASISCRSSQSLLHSNGYNYLDWYLQKPGQSPQLLIYLGSKRASGVPDRFSGSGSGTDFTLQISRVEAEDVGVYYCMQSTQFPPYTFGQGTKLEIKR
B1 returned a fold lower affinity than HB48-35 of 1.3 fold.

B2: human antibody HB48-33 (antibody, V domains shown)
VH: QVQLVQSGGEVKKPGALMKVSCKASGYIFTSYGISWVRQAPGQGLEWIGWINTYSGHTNYARKFRGRVTMTWDTSTSTAYMELSSLRSDDTAVYYCARVPTWGIDYWGQGTLVTVSS
VL: QAGLTQPPSVSVAPGKTARITCGGDNIGRKSVHWYQQKTGQAPVLVVYEDNKRPSGIPERFSGSNSGNTATLTISGTQAMDEADYYCQAWDSSTVVFGGGTKLTVLG
Take B2: the fold lower affinity than HB48-35 was 4 fold.
